Source: patent publication US7410949 (Hoffmann-La Roche, dated 2008)
*1 amine or outer side, *2 acyl side, *3 side chain or, on linkers, in order; H or OH if unused. Bridges are numbered along the chain shown (N, C = ends). [ ]: non-standard residue; d: D form. Pqa = N-piperazin-1-yl-4(3H)-quinazolinone-3-acetic acid, O=C(Cn1cnc2ccc(N3CCN([*:1])CC3)cc2c1=O)[*:2]; Phe(3,4,5-F3) = N[C@@H](Cc1cc(F)c(F)c(F)c1)C(=O)O; Tic = O=C(O)[C@@H]1Cc2ccccc2CN1; Nle = CCCC[C@H](N)C(=O)O

T1: human NPY2 receptor (human, UniProt P49146 1-381)
T1 sequence (looked up): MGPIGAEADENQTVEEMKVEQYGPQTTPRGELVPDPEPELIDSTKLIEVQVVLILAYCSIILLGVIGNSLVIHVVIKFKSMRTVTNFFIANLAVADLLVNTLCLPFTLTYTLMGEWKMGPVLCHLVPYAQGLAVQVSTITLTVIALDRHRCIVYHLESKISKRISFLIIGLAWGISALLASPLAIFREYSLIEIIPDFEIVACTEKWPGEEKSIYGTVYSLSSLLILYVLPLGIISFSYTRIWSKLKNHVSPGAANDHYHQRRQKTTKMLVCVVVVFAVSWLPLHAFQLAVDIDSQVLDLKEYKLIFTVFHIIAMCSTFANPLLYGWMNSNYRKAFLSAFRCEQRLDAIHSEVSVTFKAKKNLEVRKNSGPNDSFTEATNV

B1: H-Ile-Lys-Pqa-Arg-His-Tyr-Leu-Ala-Leu-Val-Thr-Arg-Gln-Arg-Tyr-NH2 (peptide)
peptide: H-IK[Pqa]RHYLALVTRQRY-NH2
SMILES: CC[C@H](C)[C@H](N)C(=O)N[C@@H](CCCCN)C(=O)N1CCN(c2ccc3ncn(CC(=O)N[C@@H](CCCNC(=N)N)C(=O)N[C@@H](Cc4c[nH]cn4)C(=O)N[C@@H](Cc4ccc(O)cc4)C(=O)N[C@@H](CC(C)C)C(=O)N[C@@H](C)C(=O)N[C@@H](CC(C)C)C(=O)N[C@H](C(=O)N[C@H](C(=O)N[C@@H](CCCNC(=N)N)C(=O)N[C@@H](CCC(N)=O)C(=O)N[C@@H](CCCNC(=N)N)C(=O)N[C@@H](Cc4ccc(O)cc4)C(N)=O)[C@@H](C)O)C(C)C)c(=O)c3c2)CC1
B2: H-Ile-Lys-Pqa-Arg-His-Tyr-Leu-Asn-Leu-Val-Thr-Arg-Gln-(NMe)Arg-Tyr-NH2 (peptide)
peptide: IKRHYLNLVTRQRY
modifications: N-methyl Arg at PYY position 35 (residue 11 of the second part); Pqa moiety between the two parts; C-terminal amide
B3: Ac-Ile-Nle-Pqa-Arg-His-Tic-Leu-Asn-Leu-Val-Thr-Arg-Gln-Arg-Tyr-NH2 (peptide)
peptide: Ac-I[Nle][Pqa]RH[Tic]LNLVTRQRY-NH2
SMILES: CCCC[C@H](NC(=O)[C@@H](NC(C)=O)[C@@H](C)CC)C(=O)N1CCN(c2ccc3ncn(CC(=O)N[C@@H](CCCNC(=N)N)C(=O)N[C@@H](Cc4c[nH]cn4)C(=O)N4Cc5ccccc5C[C@H]4C(=O)N[C@@H](CC(C)C)C(=O)N[C@@H](CC(N)=O)C(=O)N[C@@H](CC(C)C)C(=O)N[C@H](C(=O)N[C@H](C(=O)N[C@@H](CCCNC(=N)N)C(=O)N[C@@H](CCC(N)=O)C(=O)N[C@@H](CCCNC(=N)N)C(=O)N[C@@H](Cc4ccc(O)cc4)C(N)=O)[C@@H](C)O)C(C)C)c(=O)c3c2)CC1
B4: Ac-Ile-Nle-Pqa-(3,4,5 Trifluoro Phe)-His-Tyr-Leu-Asn-Leu-Val-Thr-Arg-Gln-Arg-Tyr-NH2 (peptide)
peptide: Ac-I[Nle][Pqa][Phe(3,4,5-F3)]HYLNLVTRQRY-NH2
SMILES: CCCC[C@H](NC(=O)[C@@H](NC(C)=O)[C@@H](C)CC)C(=O)N1CCN(c2ccc3ncn(CC(=O)N[C@@H](Cc4cc(F)c(F)c(F)c4)C(=O)N[C@@H](Cc4c[nH]cn4)C(=O)N[C@@H](Cc4ccc(O)cc4)C(=O)N[C@@H](CC(C)C)C(=O)N[C@@H](CC(N)=O)C(=O)N[C@@H](CC(C)C)C(=O)N[C@H](C(=O)N[C@H](C(=O)N[C@@H](CCCNC(=N)N)C(=O)N[C@@H](CCC(N)=O)C(=O)N[C@@H](CCCNC(=N)N)C(=O)N[C@@H](Cc4ccc(O)cc4)C(N)=O)[C@@H](C)O)C(C)C)c(=O)c3c2)CC1
B5: H-Ile-Lys-Pqa-Arg-His-Tyr-Leu-Asn-Leu-Val-Thr-(D)Arg-Gln-Arg-Tyr-NH2 (peptide)
peptide: IKRHYLNLVTRQRY
modifications: (D)Arg at PYY position 33 (residue 9 of the second part); Pqa moiety between the two parts; C-terminal amide
B6: H-Ile-Lys-Pqa-Arg-Ala-Tyr-Leu-Asn-Leu-Val-Thr-Arg-Gln-Arg-Tyr-NH2 (peptide)
peptide: H-IK[Pqa]RAYLNLVTRQRY-NH2
SMILES: CC[C@H](C)[C@H](N)C(=O)N[C@@H](CCCCN)C(=O)N1CCN(c2ccc3ncn(CC(=O)N[C@@H](CCCNC(=N)N)C(=O)N[C@@H](C)C(=O)N[C@@H](Cc4ccc(O)cc4)C(=O)N[C@@H](CC(C)C)C(=O)N[C@@H](CC(N)=O)C(=O)N[C@@H](CC(C)C)C(=O)N[C@H](C(=O)N[C@H](C(=O)N[C@@H](CCCNC(=N)N)C(=O)N[C@@H](CCC(N)=O)C(=O)N[C@@H](CCCNC(=N)N)C(=O)N[C@@H](Cc4ccc(O)cc4)C(N)=O)[C@@H](C)O)C(C)C)c(=O)c3c2)CC1
B7: H-Ile-Lys-Pqa-Arg-His-Tyr-Leu-Asn-Leu-Val-Ala-Arg-Gln-Arg-Tyr-NH2 (peptide)
peptide: H-IK[Pqa]RHYLNLVARQRY-NH2
SMILES: CC[C@H](C)[C@H](N)C(=O)N[C@@H](CCCCN)C(=O)N1CCN(c2ccc3ncn(CC(=O)N[C@@H](CCCNC(=N)N)C(=O)N[C@@H](Cc4c[nH]cn4)C(=O)N[C@@H](Cc4ccc(O)cc4)C(=O)N[C@@H](CC(C)C)C(=O)N[C@@H](CC(N)=O)C(=O)N[C@@H](CC(C)C)C(=O)N[C@H](C(=O)N[C@@H](C)C(=O)N[C@@H](CCCNC(=N)N)C(=O)N[C@@H](CCC(N)=O)C(=O)N[C@@H](CCCNC(=N)N)C(=O)N[C@@H](Cc4ccc(O)cc4)C(N)=O)C(C)C)c(=O)c3c2)CC1
B8: H-Ile-Lys-Pqa-Arg-His-Tyr-Leu-Asn-(D)Leu-Val-Thr-Arg-Gln-Arg-Tyr-NH2 (peptide)
peptide: IKRHYLNLVTRQRY
modifications: (D)Leu at PYY position 30 (residue 6 of the second part); Pqa moiety between the two parts; C-terminal amide

Key:
Assay in all cases: cell-based or functional assay
Y4R = target: Y4R
Y1R = target: Y1R
Y1R, sequence (P25929 whole entry): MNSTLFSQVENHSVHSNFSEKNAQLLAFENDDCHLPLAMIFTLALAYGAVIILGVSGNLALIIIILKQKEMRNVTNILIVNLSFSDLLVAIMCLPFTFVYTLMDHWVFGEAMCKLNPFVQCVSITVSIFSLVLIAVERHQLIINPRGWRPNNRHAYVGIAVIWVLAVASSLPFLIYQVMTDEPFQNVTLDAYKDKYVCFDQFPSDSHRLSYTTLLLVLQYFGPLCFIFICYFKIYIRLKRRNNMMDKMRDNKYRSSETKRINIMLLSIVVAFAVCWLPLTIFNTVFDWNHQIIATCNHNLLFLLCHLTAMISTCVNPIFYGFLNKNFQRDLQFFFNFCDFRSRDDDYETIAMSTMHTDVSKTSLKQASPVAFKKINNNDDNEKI

human NPY2 receptor = target: T1, human NPY2 receptor

Binder	Y4R EC50(nM) FLIPR (Y4R)	Y1R EC50(nM) FLIPR (Y1R)	Y2R EC50(nM) FLIPR (human NPY2 receptor)	Y2R IC50(nM) cAMP (human NPY2 receptor)
AKRHYLNLVTRQRY (Pqa moiety between the two parts; C-terminal amide) [H-Ala-Lys-Pqa-Arg-His-Tyr-Leu-Asn-Leu-Val-Thr-Arg-Gln-Arg-Tyr-NH2]	> 5000 nM	> 5000 nM		
B1	> 5000 nM	> 5000 nM		
IKRHYLNAVTRQRY (Pqa moiety between the two parts; C-terminal amide) [H-Ile-Lys-Pqa-Arg-His-Tyr-Leu-Asn-Ala-Val-Thr-Arg-Gln-Arg-Tyr-NH2]	> 5000 nM	> 5000 nM		
B2			18.9 nM	0.417 nM
B3	> 5000 nM	> 5000 nM		
B4	> 5000 nM	> 5000 nM		
Ac-I[Nle][Pqa]RHYKNLVDRQRY-NH2 (lactam 7-11) [Cyclo Lys28-Asp32 Ac-Ile-Nle-Pqa-Arg-His-Tyr-Lys-Asn-Leu-Val-Asp-Arg-Gln-Arg-Tyr-NH2]	> 5000 nM	> 5000 nM		
B5	> 5000 nM	> 5000 nM		
B6	> 5000 nM	> 5000 nM		
B7	> 5000 nM	> 5000 nM		
B8	> 5000 nM	> 5000 nM		
